Results published in patent US20170128527A1.

Target: Human Prolactin Receptor (PrlR) (human) (UniProt P16471)
Assay: cell-based or functional assay

Chain of UniProt P16471 (P16471 25-622 limits assumed): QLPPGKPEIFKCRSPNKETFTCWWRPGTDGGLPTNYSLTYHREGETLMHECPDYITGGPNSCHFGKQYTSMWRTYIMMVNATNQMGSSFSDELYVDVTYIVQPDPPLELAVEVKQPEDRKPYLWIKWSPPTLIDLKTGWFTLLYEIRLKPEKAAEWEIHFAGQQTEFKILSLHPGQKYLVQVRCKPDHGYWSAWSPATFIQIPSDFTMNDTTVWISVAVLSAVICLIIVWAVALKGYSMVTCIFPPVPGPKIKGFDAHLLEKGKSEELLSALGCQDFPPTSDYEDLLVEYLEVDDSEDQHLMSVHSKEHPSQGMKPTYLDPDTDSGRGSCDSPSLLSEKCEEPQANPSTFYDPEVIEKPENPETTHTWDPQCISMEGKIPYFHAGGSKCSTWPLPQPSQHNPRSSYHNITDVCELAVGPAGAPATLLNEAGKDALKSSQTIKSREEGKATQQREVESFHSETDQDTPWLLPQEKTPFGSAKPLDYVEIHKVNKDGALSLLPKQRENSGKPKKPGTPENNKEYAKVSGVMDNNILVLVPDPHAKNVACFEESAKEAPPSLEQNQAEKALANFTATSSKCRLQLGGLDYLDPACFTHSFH

Invasion (AU), U251 MG cells, CytoSelect Cell Invasion Assay, OD 560 nm; Prl 200 ng/ml + antagonist 200 ng/ml (control 0.380): 0.379 AU
Invasion (AU), U251 MG cells, CytoSelect Cell Invasion Assay, OD 560 nm; antagonist alone (control 0.380): 0.385 AU
Substance: Prl receptor antagonist Prl Δ1-9 S33A, Q73L, G129R, K190R (SEQ ID NO: 13) (from UniProt P01236 38-227) (ligand)
